T1: Human HHLA2-mIgG2a fusion protein (human; mouse, UniProt Q9UM44 23-344, limits assumed)
T1 construct: also called HHLA2-Ig; HHLA2-mouse IgG2a; not shown: mutated at IgG2a L235E, E318A, K320A, K322A
T1 sequence: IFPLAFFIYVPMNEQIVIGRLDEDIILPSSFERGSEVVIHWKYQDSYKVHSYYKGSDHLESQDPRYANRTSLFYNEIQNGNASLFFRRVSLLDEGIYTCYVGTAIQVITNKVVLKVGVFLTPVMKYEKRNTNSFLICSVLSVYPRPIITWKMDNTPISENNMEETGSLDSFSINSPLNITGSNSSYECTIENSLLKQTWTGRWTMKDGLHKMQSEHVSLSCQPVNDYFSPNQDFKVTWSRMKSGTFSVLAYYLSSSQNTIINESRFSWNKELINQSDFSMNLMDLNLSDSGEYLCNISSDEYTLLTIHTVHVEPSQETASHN


Columns and labels:
[1] = target: T1, Human HHLA2-mIgG2a fusion protein; test: cell microarray on transfected HEK293 cells, HHLA2-mIgG2a probe, AF647 anti-mouse IgG detection
Procedure: A library of ˜5500 full length cDNA clones covering more than 3,500 different plasma membrane proteins was arrayed in duplicate across 13 microarray slides (“slide sets”). Human HEK293 cells were grown above the cDNA clones and reverse-transfected. An expression vector (pIRES-hEGFR-IRES-ZsGreen1) was spotted in quadruplicate on every slide and was used to ensure that a minimal threshold of transfection efficiency had been achieved or exceeded on every slide.
Two replicate slides were screened for each of the 13 slide sets. Fluorescent images were analyzed and quantitated (for transfection efficiency) using ImageQuant software (GE). A protein ‘hit’ was defined as duplicate spots showing a raised signal compared to background levels. This was achieved by visual inspection using the images gridded on the ImageQuant software.

[2] = target: T2, Human PD1, Sino Biological Cat #: HPLC-10377-H08H (human, UniProt Q15116 25-167); test: BLI (Octet RED96), antibody captured on the sensor, antigen in solution, 1:1 model
T2 construct: Bought; also called PD-1 (Octet antigen)
T2 sequence (Q15116 25-167 limits assumed): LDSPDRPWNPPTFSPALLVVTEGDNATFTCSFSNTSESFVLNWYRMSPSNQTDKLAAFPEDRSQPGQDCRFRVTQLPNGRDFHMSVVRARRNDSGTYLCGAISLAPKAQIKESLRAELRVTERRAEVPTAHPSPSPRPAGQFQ
Procedure: (§1) Binding experiments were performed on Octat Red af 25″° C. The human antibodies were loaded onto Anti-higG Fe Capture biosensors and the mouse antibodies were loaded onto Anti-migG Fe Capture biosensors both for 300 seconds. The ligand loaded sensors were dipped into a 3-fold series dilution (starting at 300 nad) of the antigens (PD-1 and KIR3DL3) for 240 seconds followed by dissociation for 400 seconds. Kinetic constanta were calculated using a monovalent (1:1) binding model Antigen: Haman PD1, Sino Biological Cat #: HPLC-10377-HOSH.

[3] = target: T3, Human KIR3DL3, Sino Biological Cat#: 16055-H08H (human, UniProt Q8N743 26-322); test: as above
T3 construct: Bought soluble antigen; also called KIR3DL3 (Octet antigen)
T3 sequence (Q8N743 other isoform, or with tags, fused parts or gaps H08H H08H limits assumed): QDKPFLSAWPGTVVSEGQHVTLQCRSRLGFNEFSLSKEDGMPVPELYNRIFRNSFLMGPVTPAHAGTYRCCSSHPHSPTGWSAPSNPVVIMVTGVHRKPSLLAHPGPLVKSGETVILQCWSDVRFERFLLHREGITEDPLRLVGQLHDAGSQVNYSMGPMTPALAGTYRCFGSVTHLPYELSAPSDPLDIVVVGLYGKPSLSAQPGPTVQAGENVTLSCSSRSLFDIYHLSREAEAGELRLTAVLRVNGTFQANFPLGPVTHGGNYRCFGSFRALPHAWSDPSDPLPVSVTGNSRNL
Procedure: as §1

Row | Binder | binding result [1] | Kd [2] | koff [2] | kon [2] | also measured
1 | PD-1 EH13.2A11.17.1 human IgG4 (S228P) (antibody, V domains shown, Chimeric: mouse EH13 variable domains on human IgG4 (S228P) and human kappa (Km3); The printed word SignalPeptide_ is a placeholder and is left out; also called LP PD-1 mAb (TP-31850); PD-1 mAb EH13 human IgG4) VH: EVKLVESGGGLVQPGGSLKLSCAASGFTFSSFTLSWVRQTPEKRLEWVAYISYGGADTYYPDTVKGRFTIFRDNAKNTLYLQMSSLKSEDTARYYCARHGPYGKGDYYAMDYWGQGTSVTVSS VL: not shown |  | 6.88 nM | 0.00137 s⁻¹ | 199000 M⁻¹ s⁻¹ | 
2 | KIR3DL3 mAb 574.2.2F11.2.7.4 human IgG4 (S228P) (antibody, V domains shown, Chimeric: mouse 2F11 variable domains on human IgG4 (S228P) and human kappa (Km3); Signal peptide placeholder left out; also called LP KIR3DL3 mAb (TP-31851); KIR3DL3 mAb 2F11 human IgG4) VH: DVQLVESGGGLVQPGGSRKLSCAASGFTFSYFGMHWVRRAPEKGLEWVAFISSDSTTIYYTDTVKGRFTISRDNPKNTLFLQMTSLRSEDTAIYYCARFYDGAMDYWGQGTSVTVST VL: DIVMTQSQKFMSTSVGDRVSITCKASQSVRTAVAWYQQKPGQSPKVLIYLASNRHTGVPDRFTGSGSGTDFTLTISNVQSEDLADYFCLQHWNYPLTFGAGTKLELKR |  |  |  |  | Kd [3]: 0.289 nM; koff [3]: 7.19e-05 s⁻¹; kon [3]: 248000 M⁻¹ s⁻¹

Now from value to binder, other results behind:

Row | binding result [1] | Kd [2] | koff [2] | kon [2] | Binder | also measured
3 | no binding (tested: 20 ug/ml) |  |  |  | CD86 (ligand, human, UniProt P42081 24-329, looked up, full length, on the cell surface) single chain: APLKIQAYFNETADLPCQFANSQNQSLSELVVFWQDQENLVLNEVYLGKEKFDSVHSKYMGRTSFDSDSWTLRLHNLQIKDKGLYQCIIHHKKPTGMIRIHQMNSELSVLANFSQPEIVPISNITENVYINLTCSSIHGYPEPKKMSVLLRTKNSTIEYDGVMQKSQDNVTELYDVSISLSVSFPDVTSNMTIFCILETDKTRLLSSPFSIELEDPQPPPDHIPWITAVLPTVIICVMVFCLILWKWKKKKRPRNSYKCGTNTMEREESEQTKKREKIHIPERSDEAQRVFKSSKTSSCDKSDTCF | 
4 |  | 7.1 nM | 0.00154 s⁻¹ | 216000 M⁻¹ s⁻¹ | PD-1 mAb EH13.2A11.17.1 (antibody, V domains shown, Parental mouse hybridoma antibody; also called parental control hybridoma) VH: EVKLVESGGGLVQPGGSLKLSCAASGFTFSSFTLSWVRQTPEKRLEWVAYISYGGADTYYPDTVKGRFTIFRDNAKNTLYLQMSSLKSEDTARYYCARHGPYGKGDYYAMDYWGQGTSVTVSS VL: not shown | 
5 | no binding (tested: 20 ug/ml) |  |  |  | KIR2DL3 (receptor, UniProt P43628 22-341, looked up, whole, on cells) HEGVHRKPSLLAHPGPLVKSEETVILQCWSDVRFQHFLLHREGKFKDTLHLIGEHHDGVSKANFSIGPMMQDLAGTYRCYGSVTHSPYQLSAPSDPLDIVITGLYEKPSLSAQPGPTVLAGESVTLSCSSRSSYDMYHLSREGEAHERRFSAGPKVNGTFQADFPLGPATHGGTYRCFGSFRDSPYEWSNSSDPLLVSVTGNPSNSWPSPTEPSSETGNPRHLHVLIGTSVVIILFILLLFFLLHRWCCNKKNAVVMDQEPAGNRTVNREDSDEQDPQEVTYAQLNHCVFTQRKITRPSQRPKTPPTDIIVYTELPNAEP | 

Reference: patent US20250388702A1 (Dana-Farber, published 2025)
